According to US20170327844A1:

Target: cation-independent mannose 6-phosphate (M6P) receptor (MPR) (UniProt P11717)
Test: cell-based or functional assay

Sequence of UniProt P11717 (P11717 41-2491): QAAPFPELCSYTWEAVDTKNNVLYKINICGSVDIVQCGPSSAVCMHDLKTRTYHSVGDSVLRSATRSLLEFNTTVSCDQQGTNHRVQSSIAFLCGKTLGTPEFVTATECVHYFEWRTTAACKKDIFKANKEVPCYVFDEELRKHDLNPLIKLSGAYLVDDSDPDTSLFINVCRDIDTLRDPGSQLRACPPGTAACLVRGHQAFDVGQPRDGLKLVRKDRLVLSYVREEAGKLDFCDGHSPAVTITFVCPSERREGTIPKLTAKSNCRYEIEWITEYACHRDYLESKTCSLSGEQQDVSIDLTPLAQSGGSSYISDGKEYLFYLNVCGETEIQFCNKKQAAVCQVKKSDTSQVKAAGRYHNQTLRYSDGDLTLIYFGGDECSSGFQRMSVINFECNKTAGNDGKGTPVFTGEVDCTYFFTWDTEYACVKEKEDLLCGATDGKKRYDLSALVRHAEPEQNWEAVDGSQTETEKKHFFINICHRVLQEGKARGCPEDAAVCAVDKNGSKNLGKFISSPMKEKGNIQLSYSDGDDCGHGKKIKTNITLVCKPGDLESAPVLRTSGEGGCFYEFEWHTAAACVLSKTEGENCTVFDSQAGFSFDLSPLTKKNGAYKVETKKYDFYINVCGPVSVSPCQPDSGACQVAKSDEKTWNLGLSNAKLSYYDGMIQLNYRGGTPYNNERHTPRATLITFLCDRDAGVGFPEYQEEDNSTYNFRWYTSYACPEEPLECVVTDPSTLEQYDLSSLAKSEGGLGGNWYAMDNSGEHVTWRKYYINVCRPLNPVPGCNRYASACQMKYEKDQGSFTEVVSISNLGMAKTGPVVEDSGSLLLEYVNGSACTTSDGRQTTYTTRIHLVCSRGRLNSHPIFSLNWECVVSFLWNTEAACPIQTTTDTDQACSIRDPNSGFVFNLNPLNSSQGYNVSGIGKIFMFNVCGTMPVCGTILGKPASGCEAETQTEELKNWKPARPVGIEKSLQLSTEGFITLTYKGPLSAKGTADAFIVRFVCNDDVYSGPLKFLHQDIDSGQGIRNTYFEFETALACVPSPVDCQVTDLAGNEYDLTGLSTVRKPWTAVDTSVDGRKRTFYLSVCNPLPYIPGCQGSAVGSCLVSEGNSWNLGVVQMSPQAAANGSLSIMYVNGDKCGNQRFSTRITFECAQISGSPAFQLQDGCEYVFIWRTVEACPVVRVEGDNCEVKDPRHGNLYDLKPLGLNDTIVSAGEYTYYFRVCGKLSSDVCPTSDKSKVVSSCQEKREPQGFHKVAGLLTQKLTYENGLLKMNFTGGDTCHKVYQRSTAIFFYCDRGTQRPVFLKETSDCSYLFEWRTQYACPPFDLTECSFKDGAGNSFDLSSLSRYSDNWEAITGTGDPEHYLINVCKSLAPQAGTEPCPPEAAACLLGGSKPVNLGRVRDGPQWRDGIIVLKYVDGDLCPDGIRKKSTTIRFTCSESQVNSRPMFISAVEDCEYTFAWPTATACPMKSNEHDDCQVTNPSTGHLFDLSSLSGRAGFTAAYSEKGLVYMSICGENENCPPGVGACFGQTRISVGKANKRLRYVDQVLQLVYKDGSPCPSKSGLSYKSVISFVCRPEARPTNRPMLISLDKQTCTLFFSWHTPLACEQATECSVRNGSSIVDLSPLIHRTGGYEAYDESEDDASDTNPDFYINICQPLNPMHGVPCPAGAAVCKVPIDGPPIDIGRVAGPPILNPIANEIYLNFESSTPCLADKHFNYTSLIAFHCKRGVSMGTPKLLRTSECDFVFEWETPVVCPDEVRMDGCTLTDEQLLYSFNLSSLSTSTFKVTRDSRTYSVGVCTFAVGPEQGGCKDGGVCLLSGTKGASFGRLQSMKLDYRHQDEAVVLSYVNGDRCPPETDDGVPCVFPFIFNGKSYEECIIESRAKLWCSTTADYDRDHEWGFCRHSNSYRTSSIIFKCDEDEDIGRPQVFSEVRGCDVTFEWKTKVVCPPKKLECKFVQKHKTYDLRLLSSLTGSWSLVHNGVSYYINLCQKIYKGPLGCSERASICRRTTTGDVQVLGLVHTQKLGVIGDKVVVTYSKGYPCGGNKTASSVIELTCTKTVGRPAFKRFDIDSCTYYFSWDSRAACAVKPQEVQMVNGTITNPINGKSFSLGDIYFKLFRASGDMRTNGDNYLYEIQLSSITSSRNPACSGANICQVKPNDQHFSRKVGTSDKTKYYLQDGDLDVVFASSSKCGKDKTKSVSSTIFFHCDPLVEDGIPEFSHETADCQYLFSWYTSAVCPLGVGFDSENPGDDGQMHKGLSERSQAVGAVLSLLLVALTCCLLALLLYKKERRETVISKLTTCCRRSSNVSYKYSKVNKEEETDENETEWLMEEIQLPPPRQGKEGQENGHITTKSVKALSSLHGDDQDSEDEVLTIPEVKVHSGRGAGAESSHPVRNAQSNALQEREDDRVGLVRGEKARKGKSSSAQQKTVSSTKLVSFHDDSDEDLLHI

Substance: alpha-L-iduronidase (IDUA) released by erythroid-induced MEL-KIiG cells (human IDUA cDNA) (from UniProt P35475 28-653) (enzyme)
- intracellular IDUA level in LCLmps cells after uptake, relative to wild-type (% of wild-type levels): 10
- intracellular IDUA specific activity in LCLmps cells after 3 hr uptake from conditioned medium: 0.8 U/mg
